The source of these data is US20110243929A1 (MEDLMMUNE, published 2011).

Where “and” joins values, the source holds several entries; their conditions need not be identical. Equal entries are not always repeated.

One experiment has as its target T1, human ICOS (human, UniProt Q9Y6W8 21-199).
T1 sequence: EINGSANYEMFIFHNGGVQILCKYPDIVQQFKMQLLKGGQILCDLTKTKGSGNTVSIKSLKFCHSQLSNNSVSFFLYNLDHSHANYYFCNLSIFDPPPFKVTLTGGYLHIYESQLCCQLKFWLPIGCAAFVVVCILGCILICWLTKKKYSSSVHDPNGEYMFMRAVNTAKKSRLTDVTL
Briefly: cell-based or functional assay.

The target in experiment [1] is T2, cynomolgus ICOS (cynomolgus, UniProt A0A2K5TQR6 21-168).
T2 sequence: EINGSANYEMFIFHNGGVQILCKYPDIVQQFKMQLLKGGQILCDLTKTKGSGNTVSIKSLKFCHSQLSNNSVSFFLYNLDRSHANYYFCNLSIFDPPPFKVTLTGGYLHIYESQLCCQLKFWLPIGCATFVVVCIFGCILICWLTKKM
Put plainly: cell-based or functional assay.

Experiment [2] deals with T2, cynomolgus ICOS. Put plainly: cell-based or functional assay. The source holds these as a separate data set.
Experiment [3] concerns the target T2, cynomolgus ICOS. Briefly: cell-based or functional assay. The source holds these as a separate data set.
The target of a further experiment is T3, Human FcγRIIa (human, UniProt P12318).
T3 construct: extracellular domain
T3 sequence (extracellular domain, looked up): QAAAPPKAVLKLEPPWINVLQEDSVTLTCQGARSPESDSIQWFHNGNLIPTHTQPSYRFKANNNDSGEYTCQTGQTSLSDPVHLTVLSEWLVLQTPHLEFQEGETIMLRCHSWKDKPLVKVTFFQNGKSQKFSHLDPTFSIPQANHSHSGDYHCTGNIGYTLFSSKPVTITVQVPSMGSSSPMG
Briefly: BIAcore 3000; IgG immobilized on CM5 chip, soluble FcγR extracellular domain injected; equilibrium 1:1 binding isotherm. On the procedure: (§1) The measurements are performed according to standard protocols. Briefly, all IgGs are immobilized onto separate flow cells of two CM5 sensor chips using standard amino coupling chemistry as recommended by the manufacturer. […] Stock solutions of the recombinantly expressed extracellular domains of all FcγRs at either 4000 or 16000 nM are prepared and then serially diluted down to the desired concentrations using the instrument buffer (50 mM HBS buffer containing 0.01 M HEPES, pH 7.4, 0.15 M NaCl, 3 mM EDTA and 0.005% P-20). Duplicate injections of each concentration of FcγR ared then injected over all of the IgG surfaces at a flow rate of 5 μL/min. Binding data are collected for approximately […], followed by a 30 sec. pulse of 5 mM HCl between injections to regenerate the IgG surfaces. Several buffer injections are also interspersed throughout the injection series. One of these buffer injections is used along with the reference cell data to correct the raw data sets. After all binding data is collected, individual data sets are averaged for each y concentration, then fit to a 1:1 binding isotherm from which the equilibrium binding constants, KD, are derived. Analysis is carried out using the BIAevaluation software.

The next experiment deals with T4, Cynomolgus FcγRIIa (Macaca fascicularis, UniProt A0A140HDN0).
T4 construct: extracellular domain
T4 sequence (extracellular domain): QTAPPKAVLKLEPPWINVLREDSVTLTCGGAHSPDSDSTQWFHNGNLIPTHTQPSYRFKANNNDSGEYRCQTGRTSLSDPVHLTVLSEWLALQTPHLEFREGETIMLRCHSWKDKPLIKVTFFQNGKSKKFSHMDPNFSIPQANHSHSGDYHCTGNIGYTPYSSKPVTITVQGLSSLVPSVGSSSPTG
Described as above. How it is done:
as §1

Another experiment concerns the target T5, Human FcγRIIb (human, UniProt P31994).
T5 construct: extracellular domain; Only the IC9G1-aFuc cell is filled
T5 sequence (extracellular domain, looked up): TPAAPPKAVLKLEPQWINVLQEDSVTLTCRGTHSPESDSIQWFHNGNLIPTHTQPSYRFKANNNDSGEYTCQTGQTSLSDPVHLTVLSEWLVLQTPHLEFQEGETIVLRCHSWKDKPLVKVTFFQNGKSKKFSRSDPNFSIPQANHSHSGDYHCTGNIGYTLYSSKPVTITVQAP
Described as above. How it is done: as §1

Another experiment deals with T6, Cynomolgus FcγRIIb (Macaca fascicularis, UniProt A0A140HDP4).
T6 construct: extracellular domain
T6 sequence (extracellular domain): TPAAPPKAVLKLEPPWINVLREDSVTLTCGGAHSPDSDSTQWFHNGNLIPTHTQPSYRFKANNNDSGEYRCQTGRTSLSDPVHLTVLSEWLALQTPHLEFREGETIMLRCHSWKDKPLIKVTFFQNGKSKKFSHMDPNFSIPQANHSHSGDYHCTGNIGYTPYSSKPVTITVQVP
Described as above. On the procedure: as §1

For experiment [4], the target named is T7, cynomolgus FcγRIIIA, recombinantly expressed extracellular domain (cynomolgus, UniProt Q8SPW2 17-208).
T7 construct: extracellular domain; also called cynomolgus FcgRIIIa
Described as above. On the procedure:
as §1

T7 sequence (Q8SPW2 17-208): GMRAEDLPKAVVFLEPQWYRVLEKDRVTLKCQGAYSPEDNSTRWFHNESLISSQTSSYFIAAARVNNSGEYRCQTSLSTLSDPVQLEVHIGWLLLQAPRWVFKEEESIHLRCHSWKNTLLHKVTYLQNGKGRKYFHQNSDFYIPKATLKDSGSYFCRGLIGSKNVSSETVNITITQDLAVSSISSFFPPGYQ

B1: IC9G1-aFuc (afucosylated IC9G1 antibody composition) (antibody, human IgG1, kappa)
heavy: not shown
light: DIQMTQSPSSVSASVGDRVTITCRASQGISRLLAWYQQKPGKAPKLLIYVASSLQSGVPSRFSGSGSGTDFTLTISSLQPEDFATYYCQQANSFPWTFGQGTKVEIKRTVAAPSVFIFPPSDEQLKSGTASVVCLLNNFYPREAKVQWKVDNALQSGNSQESVTEQDSKDSTYSLSSTLTLSKADYEKHKVYACEVTHQGLSSPVTKSFNRGEC
modifications: chain 1 pos 305 (Asn297, EU numbering): complex N-glycoside-linked sugar chain without fucose on the reducing-end N-acetylglucosamine, written N
notes: Same polypeptides as IC9G1 (JMab-136 VH/VK, human IgHγ1 constant region, kappa); also called IG9G1-aFuc; ICG91-aFuc; copies: 2 + 2
Regarding B1, the “EC50 of ADCC activity (isolated human NK effector cells, 2:1, overnight)” value with human ICOS was 8.2 pM; with cynomolgus ICOS [1], 14.6 pM and 17.1 pM. Also, the “EC50 of ADCC (% cytotoxicity; human NK effector cells, isolated cynomolgus splenic T cells as targets)” value with cynomolgus ICOS [2] came out at 2.05 ng/mL. Besides, in the experiment with cynomolgus ICOS [3], the “EC50 of ADCC (% cytotoxicity; human NK effector cells, isolated cynomolgus mesenteric lymph node T cells as targets)” value is 2.4 ng/mL. For the same molecule, the Kd in the experiment with Human FcγRIIa came to 2010 nM; with Cynomolgus FcγRIIa, 3.14 µM; in the experiment with Human FcγRIIb, 14 µM; with Cynomolgus FcγRIIb, 1950 nM; in experiment [4], 21 nM.

B2: IC9G1 (anti ICOS antibody comprising JMab-136 VH and VL domains and the IgHγ1 constant region) (antibody, human IgG1, kappa)
heavy: not shown
light: B1 light
notes: The rest is a human IgHγ1 constant region (IgG1) and a human IgLK (kappa) constant region; copies: 2 + 2
In the case of B2, the “EC50 of ADCC activity (isolated human NK effector cells, 2:1, overnight)” value is 60.4 pM in the experiment with human ICOS; 236 pM and 198 pM with cynomolgus ICOS [1]. Besides, in the experiment with cynomolgus ICOS [2], the “EC50 of ADCC (% cytotoxicity; human NK effector cells, isolated cynomolgus splenic T cells as targets)” value came to 33.1 ng/mL. The “EC50 of ADCC (% cytotoxicity; human NK effector cells, isolated cynomolgus mesenteric lymph node T cells as targets)” value in the experiment with cynomolgus ICOS [3] came out at 27.8 ng/mL. Also, the dissociation constant Kd was determined as 3310 nM with Human FcγRIIa, 5.28 µM with Cynomolgus FcγRIIa, 2370 nM with Cynomolgus FcγRIIb and 394 nM in experiment [4].
